EC50 data for one molecule are collected here from patent publication US20160002343A1 (AbbVie / Abbott, published 2016).

Experiment [1] deals with T1, mouse Transferrin Receptor overexpressed on Hek 293 cells (mouse, UniProt Q62351 1-763).
T1 construct: whole, on cells; also called mTfR; Hek293/mTfR
As to the kind of experiment: cell-based MSD-ECL binding, Hek293/mTfR cells. How it is done:
(§1) Meso-scale Discovery (MSD) Electrochemiluminescence (ECL) assays to screen for antibodies or DVD-Ig proteins that bind a desired target antigen expressed on the cell surface were performed as follows: Hek 293 cells overexpressing mouse Transferrin Receptor were added onto MSD 96-well plates (MSD Cat# L11 XB-3, lot#2290-EA). The plates which were blocked using blocking buffer (30% FBS Serum (Hyclone) in PBS) at 37° C. for 1 hour. After incubating at room temperature (RT) for 30 minutes with mild agitation, plates were washed with DPBS 3 times and Abs/DVD-Ig proteins (10,000 ng/ml) were added. After incubating for 1 hour at RT, plates were washed 3 times with DPBS and 25 μl of Goat anti-human Sulfo TAG (MSD Cat# R32AC-, Lot# W001162) at 1 μg/ml was added. Following incubation at RT for 1 hour, plates were washed and MSD read buffer was added before reading on a MSD SECTOR Imager 6000. EC50 values were obtained using Xlfit4 software package.

In experiment [2] the target is T1, mouse Transferrin Receptor …. As to the kind of experiment: EC50 column of Table 13, taken as the cell-based mTfR binding assay. How it is done: as §1

T1 sequence (Q62351 whole entry): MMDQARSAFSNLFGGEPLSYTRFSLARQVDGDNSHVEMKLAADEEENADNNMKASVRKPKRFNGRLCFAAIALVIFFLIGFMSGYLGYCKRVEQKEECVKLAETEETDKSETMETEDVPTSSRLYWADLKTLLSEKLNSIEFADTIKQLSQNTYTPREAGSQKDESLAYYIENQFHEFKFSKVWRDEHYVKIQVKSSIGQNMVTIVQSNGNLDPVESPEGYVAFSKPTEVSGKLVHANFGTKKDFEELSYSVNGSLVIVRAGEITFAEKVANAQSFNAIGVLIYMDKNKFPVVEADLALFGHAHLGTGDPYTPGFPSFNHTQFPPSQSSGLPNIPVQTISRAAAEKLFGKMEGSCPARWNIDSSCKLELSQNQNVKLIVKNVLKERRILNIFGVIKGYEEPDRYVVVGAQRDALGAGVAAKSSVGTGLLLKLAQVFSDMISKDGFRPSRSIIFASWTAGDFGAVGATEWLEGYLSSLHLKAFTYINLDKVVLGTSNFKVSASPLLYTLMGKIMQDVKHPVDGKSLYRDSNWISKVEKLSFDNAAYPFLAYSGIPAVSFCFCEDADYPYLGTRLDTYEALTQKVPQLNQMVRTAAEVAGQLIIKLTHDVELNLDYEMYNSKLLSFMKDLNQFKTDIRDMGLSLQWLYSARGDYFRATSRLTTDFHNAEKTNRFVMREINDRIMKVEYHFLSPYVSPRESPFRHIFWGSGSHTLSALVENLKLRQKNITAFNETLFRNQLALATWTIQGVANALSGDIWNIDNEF

B1: DVD2671 (bispecific antibody)
VH: EVQLLESGGGLVQPGGSLRLSCAASGFTFSNYGMSWVRQAPGKGLEWVASIRSGGGRTYYSDNVKGRFTISRDNSKNTLYLQMNSLRAEDTAVYYCVRYDHYSGSSDYWGQGTLVTVSSASTKGPSVFPLAPEVQLVESGGGLVQPGNSLTLSCVASGFTFSNYGMHWIRQAPKKGLEWIAMIYYDSSKMNYADTVKGRFTISRDNSKNTLYLEMNSLRSEDTAMYYCAVPTSHYVVDVWGQGVSVTVSS
VL: DVVMTQSPLSLPVTPGEPASISCKSSQSLLDSDGKTYLNWLLQKPGQSPQRLIYLVSKLDSGVPDRFSGSGSGTDFTLKISRVEAEDVGVYYCWQGTHFPRTFGQGTKVEIKRTVAAPDIQMTQSPASLSASLEEIVTITCQASQDIGNWLAWYQQKPGKSPQLLIYGATSLADGVPSRFSGSRSGTQFSLKISRVQVEDIGIYYCLQAYNTPWTFGGGTKLELK
notes: DVD-Ig; also called AbetaLSTfR
Turning to B1, the EC50 in experiment [1] and in experiment [2] was 1.2 nM throughout.
